Results: patent US7592168B2, “Cephalosporin C acylase mutant and method for preparing 7-ACA using same” (Sandoz AG, priority 2003, dated 2009)

B1: Wild-type: Pseudomonas sp. SE83 derived wild-type CPC acylase (AcyII), α-subunit SEQ ID NO: 4 and β-subunit SEQ ID NO: 5, from pBCPC (protein)
alpha: TMAAKTDREALQAALPPLSGSLSIPGLSAPVRVQRDGWGIPHIKASGEADAYRALGFVHAQDRLFQMELTRRKALGRAAEWLGAEAAEADILVRRLGMEKVCRRDFEALGAEAKDMLRAYVAGVNAFLASGAPLPIEYGLLGAEPEPWEPWHSIAVMRRLGLLMGSVWFKLWRMLALPVVGAANALKLRYDDGGQDLLCIPPGVEAERLEADLAALRPAVDALLKAMGG
beta: SNNWAVAPGRTATGRPILAGDPHRVFEIPGMYAQHHLACDRFDMIGLTVPGVPGFPHFAHNGKVAYCVTHAFMDIHDLYLEQFAEDGRTARFGNEFEPVAWRRDRIAVRGGADREFDIVETRHGPVIAGDPLEGAALTLRSVQFAETDLSFDCLTRMPGASTVAQLYDATRGWGLIDHNLVAGDVAGSIGHLVRARVPSRPRENGWLPVPGWSGEHEWRGWIPHEAMPRVIDPPGGLIVTANNRVVADDHPDYLCTDCHPPYRAERIMERLVASPAFAVDDAAAIHADTLSPHVGLLRARLEALGIQGSLPAEELRQTLIAWDGRMDAGSQAASAYNAFRRALTRLVTARSGLEQAIAHPFAAVPPGVSPQGQVWWAVPTLLRNDDAGMLKGWSWDEALSEALSVATQNLTGRGWGEEHRPRFTHPLSAQFPAWAALLNPVSRPIGGDGDTVLANGLVPSAGPEATYGALSRYVFDVGNWDNSRWVVFHGASGHPASPHYADQNAPWSDCAMVPMLYSWDRIAAEAVTSQELVPA
modifications: Pseudomonas sp. SE83
B2: S12: sixfold CPC acylase mutant, α-subunit SEQ ID NO: 7 and β-subunit SEQ ID NO: 8 (protein)
alpha: TMAAKTDREALQAALPPLSGSLSIPGLSAPVRVQRDGWGIPHIKASGEADAYRALGFVHAQDRLFQMELTRRKALGRAAEWLGAEAAEADILVRRLGMEKVCRRDFEALGAEAKDMLRAYAAGVNAFLASGAPLPIEYSLLGAEPEPWEPWHSIAVMRRLGLLMGSVWFKLWRMLALPVVGAANALKLRYDDGGQDLLCIPPGVEAERLEADLAALRPAVDALLKAMGG
beta: SNNWAVAPGRTATGRPILAGDPHRVFEIPGMYAQHHLACDRFDMIGLTVPGVPGFPHNAHNGKVAYCVTHAFMDTHDLYLEQFAEDGRTARFGNEFEPVAWRRDRIAVRGGADREFDIVETRHGPVIAGDPLEGAALTLRSVQFAETDLSFDCLTRMPGASTVAQLYDATRGWGLVDHNLVAGDVAGSIGHLVRARVPSRPRENGWLPVPGWSGEHEWRGWIPHEAMPRVIDPPGGLIVTANNRVVADDHPDYLCTDCHPPYRAERIMERLVASPAFAVDDAAAIHADTLSPHVGLLRARLEALGIQGSLPAEELRQTLIAWDGRMDAGSQAASAYNAFRRALTRLVTARSGLEQAIAHPFAAVPPGVSPQGQVWWAVPTLLRNDDAGMLKGWSWDEALSEALSVATQNLTGRGWGEEHRPRFTHPLSAQFPAWAALLNPVSRPIGGDGDTVLANGLVPSAGPEATYGALCRYVFDVGNWDNSRWVVFHGASGHPASPHYADQNAPWSDCAMVPMLYSWDRIAAEAVTSQELVPA
modifications: alpha-subunit of mutatnt CPC acylase S12 protein; beta-subunit of mutatnt CPC acylase S12 protein

What was measured:
[1] = Specific activity of CPC acylase to CPC (PDAB colorimetric assay); assay type: biochemical; conditions: purified enzyme
Description: (§1) Each E. coli transformant was inoculated into 3 ml of a LB medium (1% Bacto-Tryptone, 0.5% Yeast Extract, 0.5% NaCl) containing 25 μg/ml of chloramphenicol and cultured at 30° C., 200 rpm for 16 hr with vigorous shaking. 50 μl of the culture solution was transformed to 50 ml of a new LB medium containing […] of chloramphenicol and further cultured at 25° C., 200 rpm for 48 hr with vigorous shaking. The culture solution was subjected to centrifugation at 4° C., 8,000 rpm for 10 min to separate a precipitate and the precipitate washed twice with 0.1 M Tris-HCl buffer solution (pH 8.0). This precipitate was suspended in 5 ml of the same buffer solution and subjected to ultra-sonication at 4° C. for 10 min. […]
The enzyme activity of CPC acylase mutant to CPC was measured according to the method described by Park et al. with minor modifications as follows (Park, et al., Kor. J. Appl. Microbiol. Biotechnol. 23: 559-564, 1995). A substrate solution was prepared by dissolving CPC (purity 74.2%; CJ Corp., Korea) in 0.1 M Tris-HCl buffer solution (pH 8.0) at a concentration of 20 mg/ml and adjusting pH to 8 with 1 N NaOH. […] After the reaction, the mixture (200 μl) of 50 mM NaOH and 20% glacial acetic acid (1:2) was added thereto to stop the reaction. 200 μl of the supernatant recovered from the reaction mixture by centrifugation was mixed with 40 μl of 0.5% (w/v) PDAB (p-dimethylaminobenzaldehyde; Sigma, USA) dissolved in a methanol and the reaction mixture was incubated at 37° C. for 10 min. After the reaction, the absorbance of reaction mixture was measured at 415 nm and quantified by comparing with a calibration curve of standard material. At this time, 1 unit has been defined as the amount of enzyme capable to produce 1 μmole of 7-ACA from CPC per minute. Meanwhile, the specific activity of CPC acylase mutant for CPC was determined by measuring the amount of protein remaining in the enzyme solution according to the method described by Bradford (Bradford, M., Anal. Biochem. 72: 248-254, 1976) and representing it as an active unit corresponding to 1 mg of protein. The reactivity of CPC acylase mutant to CPC was determined by the following steps of adding the same amount of protein to a reaction mixture, performing an enzyme reaction for a fixed time, measuring the amount of 7-ACA produced in the reaction mixture, and representing it as a relative value. The end-product inhibition by 7-ACA was determined by adding a protein corresponding to the same active unit to a reaction mixture, performing an enzyme reaction for a fixed time; measuring the amount of 7-ACA produced in the reaction mixture, and representing it as a relative value.

[2] = Productivity of CPC acylase, pBC KS(+) plasmids in E. coli MC1061; conditions: E. coli MC1061, LB, 25° C., 48 hr, crude enzyme
Description: as §1, with “To compare the productivity of CPC acylase by pBCPC plasmid derived E. coli transformant with that by pBSEM plasmid derived E. coli transformant, a CPC acylase crude enzyme solution obtained from each E. coli transformant was prepared as follows. Each” for “Each”
The enzyme activity of CPC acylase mutant to CPC was measured according to the method described by Park et al. with minor modifications as follows (Park, et al., Kor. J. Appl. Microbiol. Biotechnol. 23: 559-564, 1995). […] After the reaction, the absorbance of reaction mixture was measured at 415 nm and quantified by comparing with a calibration curve of standard material. […] Meanwhile, the specific activity of CPC acylase mutant for CPC was determined by measuring the amount of protein remaining in the enzyme solution according to the method described by Bradford (Bradford, M., Anal. Biochem. 72: 248-254, 1976) and representing it as an active unit corresponding to 1 mg of protein. The reactivity of CPC acylase mutant to CPC was determined by the following steps of adding the same amount of protein to a reaction mixture, performing an enzyme reaction for a fixed time, measuring the amount of 7-ACA produced in the reaction mixture, and representing it as a relative value. […]

Molecule | specific activity to CPC as % of that to GL-7-ACA [1] | specific activity to CPC ([1]; pH 8.0) | Relative activity to CPC (fold) ([1]; relative to wild-type) | The productivity of CPC acylase (unit/l) [2] | The productivity of CPC acylase (unit/l) ([2]; listed as pBCPC (wild-type)) | specific activity to CPC, fold higher than that of the wild-type CPC acylase ([1]; pH 8.5) [fold] | specific activity to CPC ([1]; pH of the reaction mixture 8.5) [unit/mg protein]
B1 | about 1.4% | about 0.33 unit/mg protein | 1.0 | about 97 unit/l | 97 |  | 
B2 |  |  |  | 712 unit/l |  | 8.5 | 5.8
